The values below come from paper PMC4867592, “Targeting multiple response regulators of Mycobacterium tuberculosis augments the host immune response to infection” (Scientific Reports, 2016).

Holding throughout (assay): EMSA
In general terms: In EMSA bound probe runs differently from free probe, usually more slowly.

The target in data set [1] is T1, RegX3 K204A K204A (UniProt P9WGL9).
T1 sequence: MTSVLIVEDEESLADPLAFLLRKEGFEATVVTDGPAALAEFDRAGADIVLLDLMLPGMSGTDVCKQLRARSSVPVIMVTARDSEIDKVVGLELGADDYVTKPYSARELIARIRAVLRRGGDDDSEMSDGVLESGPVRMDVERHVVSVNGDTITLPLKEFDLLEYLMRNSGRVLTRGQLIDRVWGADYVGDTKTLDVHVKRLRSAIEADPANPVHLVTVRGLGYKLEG

Data set [2] concerns the target T2, RegX3 L201A L201A (UniProt P9WGL9).
T2 sequence: T1 sequence with L201A, A204K

Data set [3] addresses T3, RegX3 R202A R202A (UniProt P9WGL9).
T3 sequence: T1 sequence with R202A, A204K

Numbering of substitutions follows the chain as printed.

On to “ACCGGCTTGGGACCGGCACCGCGGTACTGTGTGCGTTCGGCACCGCGCTGCACCCGCGGTTCGGGCCGGATTCGTCCGCGCGGCACCGCCGTTCGGGCGC (double strand) [ppK1 promoter fragment]”, for which the values for the binding entry in data set [1], in data set [2] and in data set [3] were “no binding”, “no binding” and “binds”, respectively.
